# Results published in the supplement of paper PMC10567573.
# B1: CSNK1G1 (parent)
# chain: GSLPWQGLKADTLKERYQKIGDTK
# Variants of: B1
# Test: protein stability index of a GFP-peptide fusion (GPS, HEK-293T) (PSI 1-6); higher = more stable
# Conditions: c terminus: a fixed tail appended
# 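Note: lentivirally expressed fusions sorted by FACS into six bins by GFP to DsRed ratio, PSI derived from sequencing read proportions per bin multiplied by bin number.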
row,Variant,protein stability index
1,GSLVWQGLKADTLKERYQKIGDTK,4.09
2,GSLIWQGLKADTLKERYQKIGDTK,3.67
3,GSLWWQGLKADTLKERYQKIGDTK,3.09
4,GSLLWQGLKADTLKERYQKIGDTK,3.78
5,GSLNWQGLKADTLKERYQKIGDTK,3.95
6,GSLMWQGLKADTLKERYQKIGDTK,4.55
7,GSLDWQGLKADTLKERYQKIGDTK,4.37
8,GSLQWQGLKADTLKERYQKIGDTK,4.3
9,GSLSWQGLKADTLKERYQKIGDTK,4.49
10,GSLRWQGLKADTLKERYQKIGDTK,4.37
11,GSLEWQGLKADTLKERYQKIGDTK,4.46
12,GSLGWQGLKADTLKERYQKIGDTK,4.02
13,GSLHWQGLKADTLKERYQKIGDTK,4.17
14,GSLCWQGLKADTLKERYQKIGDTK,3.42
15,GSLKWQGLKADTLKERYQKIGDTK,4.28
16,GSLTWQGLKADTLKERYQKIGDTK,4.08
17,GSLFWQGLKADTLKERYQKIGDTK,2.84
18,GSLYWQGLKADTLKERYQKIGDTK,3.73
19,GSLAWQGLKADTLKERYQKIGDTK,4.02
20,GSLPWQGLAADTLKERYQKIGDTK,3.71
21,GSLPWQGLLADTLKERYQKIGDTK,3.18
22,GSLPWQGLCADTLKERYQKIGDTK,3.93
23,GSLPWQGLVADTLKERYQKIGDTK,3.77
24,GSLPWQGLRADTLKERYQKIGDTK,4.09

row,Variant,protein stability index
1,GSLPWQGLTADTLKERYQKIGDTK,4.35
2,GSLPWQGLYADTLKERYQKIGDTK,4.13
3,GSLPWQGLDADTLKERYQKIGDTK,4.25
4,GSLPWQGLEADTLKERYQKIGDTK,4.69
5,GSLPWQGLWADTLKERYQKIGDTK,3.58
6,GSLPWQGLNADTLKERYQKIGDTK,4.46
7,GSLPWQGLHADTLKERYQKIGDTK,4.24
8,GSLPWQGLIADTLKERYQKIGDTK,3.79
9,GSLPWQGLGADTLKERYQKIGDTK,3.9
10,GSLPWQGLPADTLKERYQKIGDTK,5.08
11,GSLPWQGLFADTLKERYQKIGDTK,3.66
12,GSLPWQGLQADTLKERYQKIGDTK,3.89
13,GSLPWQGLMADTLKERYQKIGDTK,3.87
14,GSLPWQGLSADTLKERYQKIGDTK,4.2
15,GSLPWQGLKADKLKERYQKIGDTK,4.28
16,GSLPWQGLKADALKERYQKIGDTK,3.99
17,GSLPWQGLKADDLKERYQKIGDTK,4.68
18,GSLPWQGLKADELKERYQKIGDTK,4.85
19,GSLPWQGLKADHLKERYQKIGDTK,3.71
20,GSLPWQGLKADCLKERYQKIGDTK,4.06
21,GSLPWQGLKADGLKERYQKIGDTK,3.83
22,GSLPWQGLKADILKERYQKIGDTK,3.42
23,GSLPWQGLKADLLKERYQKIGDTK,3.37
24,GSLPWQGLKADFLKERYQKIGDTK,2.86

row,Variant,protein stability index
1,GSLPWQGLKADMLKERYQKIGDTK,3.94
2,GSLPWQGLKCDTLKERYQKIGDTK,3.48
3,GSLPWQGLKTDTLKERYQKIGDTK,4.48
4,GSLPWQGLKFDTLKERYQKIGDTK,3.5
5,GSLPWQGLKHDTLKERYQKIGDTK,4.11
6,GSLPWQGLKKDTLKERYQKIGDTK,4.28
7,GSLPWQGLKWDTLKERYQKIGDTK,3.56
8,GSLPWQGLKSDTLKERYQKIGDTK,4.2
9,GSLPWQGLKRDTLKERYQKIGDTK,4.06
10,GSLPWQGLKQDTLKERYQKIGDTK,4
11,GSLPWQGLKPDTLKERYQKIGDTK,4.39
12,GSLPWQGLKMDTLKERYQKIGDTK,3.7
13,GSLPWQGLKIDTLKERYQKIGDTK,3.6
14,GSLPWQGLKGDTLKERYQKIGDTK,4.46
15,GSLPWQGLKEDTLKERYQKIGDTK,4.06
16,GSLPWQGLKLDTLKERYQKIGDTK,3.32
17,GSLPWQGLKNDTLKERYQKIGDTK,4.62
18,GSLPWQGLKDDTLKERYQKIGDTK,5.01
19,GSLPWQGLKYDTLKERYQKIGDTK,3.63
20,GSLPWQGLKVDTLKERYQKIGDTK,4.19
21,GSLPPQGLKADTLKERYQKIGDTK,4.62
22,GSLPRQGLKADTLKERYQKIGDTK,4.29
23,GSLPGQGLKADTLKERYQKIGDTK,4.53
24,GSLPYQGLKADTLKERYQKIGDTK,4.43

row,Variant,protein stability index
1,GSLPIQGLKADTLKERYQKIGDTK,3.99
2,GSLPVQGLKADTLKERYQKIGDTK,4.58
3,GSLPMQGLKADTLKERYQKIGDTK,4.61
4,GSLPDQGLKADTLKERYQKIGDTK,5.18
5,GSLPEQGLKADTLKERYQKIGDTK,5.42
6,GSLPFQGLKADTLKERYQKIGDTK,4.75
7,GSLPQQGLKADTLKERYQKIGDTK,4.38
8,GSLPHQGLKADTLKERYQKIGDTK,4.53
9,GSLPNQGLKADTLKERYQKIGDTK,4.97
10,GSLPTQGLKADTLKERYQKIGDTK,5.09
11,GSLPKQGLKADTLKERYQKIGDTK,4.74
12,GSLPLQGLKADTLKERYQKIGDTK,4.62
13,GSLPSQGLKADTLKERYQKIGDTK,4.99
14,GSLPAQGLKADTLKERYQKIGDTK,4.98
15,GSLPCQGLKADTLKERYQKIGDTK,4.7
16,GSLPWWGLKADTLKERYQKIGDTK,2.74
17,GSLPWRGLKADTLKERYQKIGDTK,3.96
18,GSLPWTGLKADTLKERYQKIGDTK,4.24
19,GSLPWIGLKADTLKERYQKIGDTK,3.94
20,GSLPWSGLKADTLKERYQKIGDTK,3.98
21,GSLPWAGLKADTLKERYQKIGDTK,3.7
22,GSLPWYGLKADTLKERYQKIGDTK,2.89
23,GSLPWMGLKADTLKERYQKIGDTK,4.07
24,GSLPWLGLKADTLKERYQKIGDTK,3.77

row,Variant,protein stability index
1,GSLPWVGLKADTLKERYQKIGDTK,4.33
2,GSLPWDGLKADTLKERYQKIGDTK,4.48
3,GSLPWNGLKADTLKERYQKIGDTK,3.92
4,GSLPWCGLKADTLKERYQKIGDTK,3.4
5,GSLPWPGLKADTLKERYQKIGDTK,4.57
6,GSLPWKGLKADTLKERYQKIGDTK,4.13
7,GSLPWFGLKADTLKERYQKIGDTK,3.25
8,GSLPWGGLKADTLKERYQKIGDTK,4.13
9,GSLPWHGLKADTLKERYQKIGDTK,4.62
10,GSLPWEGLKADTLKERYQKIGDTK,4.32
11,GWLPWQGLKADTLKERYQKIGDTK,3.04
12,GRLPWQGLKADTLKERYQKIGDTK,3.83
13,GYLPWQGLKADTLKERYQKIGDTK,4.01
14,GVLPWQGLKADTLKERYQKIGDTK,3.35
15,GTLPWQGLKADTLKERYQKIGDTK,4.21
16,GQLPWQGLKADTLKERYQKIGDTK,4.57
17,GSLPWQGKKADTLKERYQKIGDTK,4.17
18,GSLPWQGEKADTLKERYQKIGDTK,4.44
19,GSLPWQGGKADTLKERYQKIGDTK,4.76
20,GSLPWQGQKADTLKERYQKIGDTK,4.24
21,GSLPWQGCKADTLKERYQKIGDTK,3.35
22,GSLPWQGMKADTLKERYQKIGDTK,4.35
23,GSLPWQGVKADTLKERYQKIGDTK,4.66
24,GSLPWQGPKADTLKERYQKIGDTK,4.43

row,Variant,protein stability index
1,GSLPWQGYKADTLKERYQKIGDTK,3.63
2,GSLPWQGIKADTLKERYQKIGDTK,4.13
3,GSLPWQGFKADTLKERYQKIGDTK,3.54
4,GSLPWQGRKADTLKERYQKIGDTK,4.32
5,GSLPWQGTKADTLKERYQKIGDTK,4.9
6,GSLPWQGDKADTLKERYQKIGDTK,4.75
7,GSLPWQGHKADTLKERYQKIGDTK,4.36
8,GSLPWQGNKADTLKERYQKIGDTK,4.58
9,GSLPWQGAKADTLKERYQKIGDTK,3.73
10,GSLPWQGWKADTLKERYQKIGDTK,3.69
11,GSLPWQGSKADTLKERYQKIGDTK,4.64
12,GSLPWQGLKAYTLKERYQKIGDTK,3.44
13,GSLPWQGLKAFTLKERYQKIGDTK,2.89
14,GSLPWQGLKATTLKERYQKIGDTK,3.61
15,GSLPWQGLKALTLKERYQKIGDTK,3.76
16,GSLPWQGLKARTLKERYQKIGDTK,3.57
17,GSLPWQGLKAWTLKERYQKIGDTK,2.9
18,GSLPWQGLKAATLKERYQKIGDTK,3.64
19,GSLPWQGLKASTLKERYQKIGDTK,4.11
20,GSLPWQGLKAVTLKERYQKIGDTK,2.8
21,GSLPWQGLKAQTLKERYQKIGDTK,3.56
22,GSLPWQGLKAPTLKERYQKIGDTK,4.11
23,GSLPWQGLKAHTLKERYQKIGDTK,3.69
24,GSLPWQGLKANTLKERYQKIGDTK,3.37

row,Variant,protein stability index
1,GSLPWQGLKACTLKERYQKIGDTK,3.63
2,GSLPWQGLKAITLKERYQKIGDTK,3.73
3,GSLPWQGLKAMTLKERYQKIGDTK,3.32
4,GSLPWQGLKAETLKERYQKIGDTK,4.13
5,GSLPWQGLKAKTLKERYQKIGDTK,3.93
6,GSLPWQGLKAGTLKERYQKIGDTK,3.8
7,GSCPWQGLKADTLKERYQKIGDTK,4.31
8,GSNPWQGLKADTLKERYQKIGDTK,4.09
9,GSQPWQGLKADTLKERYQKIGDTK,4.63
10,GSSPWQGLKADTLKERYQKIGDTK,4.2
11,GSEPWQGLKADTLKERYQKIGDTK,4.18
12,GSPPWQGLKADTLKERYQKIGDTK,3.88
13,GSRPWQGLKADTLKERYQKIGDTK,3.81
14,GSGPWQGLKADTLKERYQKIGDTK,4.42
15,GSVPWQGLKADTLKERYQKIGDTK,4.37
16,GSHPWQGLKADTLKERYQKIGDTK,4.58
17,GSTPWQGLKADTLKERYQKIGDTK,4.09
18,GSAPWQGLKADTLKERYQKIGDTK,4.38
19,GSDPWQGLKADTLKERYQKIGDTK,4.2
20,GSWPWQGLKADTLKERYQKIGDTK,3.41
21,GSIPWQGLKADTLKERYQKIGDTK,4.55
22,GSMPWQGLKADTLKERYQKIGDTK,4.54
23,GSYPWQGLKADTLKERYQKIGDTK,4.09
24,GSFPWQGLKADTLKERYQKIGDTK,3.71

row,Variant,protein stability index
1,GSKPWQGLKADTLKERYQKIGDTK,4.12
2,GSLPWQNLKADTLKERYQKIGDTK,4.64
3,GSLPWQPLKADTLKERYQKIGDTK,4.38
4,GSLPWQTLKADTLKERYQKIGDTK,3.89
5,GSLPWQWLKADTLKERYQKIGDTK,3.52
6,GSLPWQFLKADTLKERYQKIGDTK,2.42
7,GSLPWQQLKADTLKERYQKIGDTK,3.9
8,GSLPWQRLKADTLKERYQKIGDTK,3.56
9,GSLPWQHLKADTLKERYQKIGDTK,3.72
10,GSLPWQCLKADTLKERYQKIGDTK,3.4
11,GSLPWQELKADTLKERYQKIGDTK,4.31
12,GSLPWQDLKADTLKERYQKIGDTK,4.33
13,GSLPWQYLKADTLKERYQKIGDTK,3.49
14,GSLPWQLLKADTLKERYQKIGDTK,3.44
15,GSLPWQVLKADTLKERYQKIGDTK,3.65
16,GSLPWQILKADTLKERYQKIGDTK,3.52
17,GSLPWQKLKADTLKERYQKIGDTK,3.75
18,GSLPWQALKADTLKERYQKIGDTK,4.39
19,GSLPWQMLKADTLKERYQKIGDTK,3.85
20,GSLPWQSLKADTLKERYQKIGDTK,4.01
